Source: article PMC6513899, “The structural basis of translational control by eIF2 phosphorylation” (Nature Communications, 2019)

Columns and labels:
[1] = target: the molecule itself; assay: cryo-EM structure; eIF2αP/eIF2B complex: six-fold molar excess of eIF2αP added to purified eIF2B (GP5949), fractionated on Superose 6 in 20 mM Tris-HCl, 100 mM KCl, 1 mM TCEP, pH 7.5; core map 3.9 Å, lateral densities 8-18 Å; half-particles classified by localised reconstruction
[2] = target: T1, eIF2Bδ (subunit of eIF2B) (S. cerevisiae, UniProt P12754 1-651); assay: as above; conditions: both partners purified
T1 construct: eIF2B delta subunit, S. cerevisiae; Stood in the assay as a subunit of the eIF2B decamer; also called eIF2B delta; source: S. cerevisiae strains GP5949 and GP7055, purified as part of Flag-eIF2B
T1 sequence: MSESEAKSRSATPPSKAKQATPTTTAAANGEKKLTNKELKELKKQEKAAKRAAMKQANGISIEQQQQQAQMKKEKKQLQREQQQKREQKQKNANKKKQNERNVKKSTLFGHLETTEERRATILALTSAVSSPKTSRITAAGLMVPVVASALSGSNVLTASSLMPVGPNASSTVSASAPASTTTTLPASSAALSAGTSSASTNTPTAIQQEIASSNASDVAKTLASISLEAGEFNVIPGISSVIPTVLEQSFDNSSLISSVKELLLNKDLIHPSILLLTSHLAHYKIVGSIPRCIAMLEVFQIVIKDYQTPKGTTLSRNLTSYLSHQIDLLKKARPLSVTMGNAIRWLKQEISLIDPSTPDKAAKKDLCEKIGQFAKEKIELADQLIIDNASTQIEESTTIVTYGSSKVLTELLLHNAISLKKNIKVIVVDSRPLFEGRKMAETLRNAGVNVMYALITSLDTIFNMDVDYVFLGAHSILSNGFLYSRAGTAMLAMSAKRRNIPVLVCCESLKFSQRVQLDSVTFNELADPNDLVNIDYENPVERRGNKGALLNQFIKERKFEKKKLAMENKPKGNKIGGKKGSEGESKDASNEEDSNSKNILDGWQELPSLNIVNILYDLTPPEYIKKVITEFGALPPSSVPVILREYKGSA

B1: eIF2Bα (subunit of eIF2B) (natural protein, S. cerevisiae)
chain: MSEFNITETYLRFLEEDTEMTMPIAAIEALVTLLRIKTPETAAEMINTIKSSTEELIKSIPNSVSLRAGCDIFMRFVLRNLHLYGDWENCKQHLIENGQLFVSRAKKSRNKIAEIGVDFIADDDIILVHGYSRAVFSLLNHAANKFIRFRCVVTESRPSKQGNQLYTLLEQKGIPVTLIVDSAVGAVIDKVDKVFVGAEGVAESGGIINLVGTYSVGVLAHNARKPFYVVTESHKFVRMFPLSSDDLPMAGPPLDFTRRTDDLEDALRGPTIDYTAQEYITALITDLGVLTPSAVSEELIKMWYD
notes: eIF2B alpha subunit, S. cerevisiae; Stood in the assay as a subunit of the eIF2B decamer; also called eIF2B alpha; source: S. cerevisiae strains GP5949 and GP7055, purified as part of Flag-eIF2B
binding result [1]: binds

B2: eIF2Bβ (subunit of eIF2B) (natural protein, S. cerevisiae)
chain: MSSQAFTSVHPNAATSDVNVTIDTFVAKLKRRQVQGSYAIALETLQLLMRFISAARWNHVNDLIEQIRDLGNSLEKAHPTAFSCGNVIRRILAVLRDEVEEDTMSTTVTSTSVAEPLISSMFNLLQKPEQPHQNRKNSSGSSSMKTKTDYRQVAIQGIKDLIDEIKNIDEGIQQIAIDLIHDHEILLTPTPDSKTVLKFLITARERSNRTFTVLVTEGFPNNTKNAHEFAKKLAQHNIETLVVPDSAVFALMSRVGKVIIGTKAVFVNGGTISSNSGVSSVCECAREFRTPVFAVAGLYKLSPLYPFDVEKFVEFGGSQRILPRMDPRKRLDTVNQITDYVPPENIDIYITNVGGFNPSFIYRIAWDNYKQIDVHLDKNKA
notes: eIF2B beta subunit, S. cerevisiae; Stood in the assay as a subunit of the eIF2B decamer; also called eIF2B beta; source: S. cerevisiae strains GP5949 and GP7055, purified as part of Flag-eIF2B
binding result [2]: binds
